Series [1] concerns the target T1, M. kandleri AV19 DNA polymerase family B (Mka PolB) (MK1039) (Methanopyrus kandleri AV19).
T1 chain: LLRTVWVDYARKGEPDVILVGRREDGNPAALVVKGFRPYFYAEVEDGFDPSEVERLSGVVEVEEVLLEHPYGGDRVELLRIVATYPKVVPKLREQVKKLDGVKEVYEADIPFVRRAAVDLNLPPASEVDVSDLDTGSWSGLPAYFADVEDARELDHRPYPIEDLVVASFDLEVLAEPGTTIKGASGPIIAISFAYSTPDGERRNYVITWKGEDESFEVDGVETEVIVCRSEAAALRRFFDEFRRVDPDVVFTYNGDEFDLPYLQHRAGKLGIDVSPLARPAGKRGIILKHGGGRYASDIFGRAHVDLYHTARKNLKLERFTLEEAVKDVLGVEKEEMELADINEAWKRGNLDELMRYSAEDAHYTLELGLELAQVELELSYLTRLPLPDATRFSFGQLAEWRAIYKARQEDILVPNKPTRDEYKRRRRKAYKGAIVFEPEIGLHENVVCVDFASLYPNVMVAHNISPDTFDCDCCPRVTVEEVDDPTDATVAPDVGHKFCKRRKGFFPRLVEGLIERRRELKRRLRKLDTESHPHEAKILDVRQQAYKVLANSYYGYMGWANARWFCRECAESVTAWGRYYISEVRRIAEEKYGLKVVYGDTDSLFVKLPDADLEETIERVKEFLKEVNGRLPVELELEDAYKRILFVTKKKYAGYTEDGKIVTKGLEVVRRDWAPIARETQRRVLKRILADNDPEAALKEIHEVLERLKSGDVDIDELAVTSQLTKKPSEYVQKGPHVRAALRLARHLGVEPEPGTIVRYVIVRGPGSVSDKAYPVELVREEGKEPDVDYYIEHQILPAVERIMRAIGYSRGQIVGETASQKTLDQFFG
The series can be described thus: cell-based or functional assay.

Series [2] has as its target M.K. polB DNA polymerase (Methanopyrus kandleri, UniProt Q8TWJ5). The series can be described thus: Effects of media components on M.K. polB DNA polymerase activity (primer extension). Type of series: biochemical. Here is the method: DNA polymerase reaction mixtures (15-20 μl) contained dATP, dTTP, dCTP, and dGTP (1 mM each), 4.5 mM MgCl2, detergents Tween 20 and Nonidet P-40 (0.2% each), fixed concentrations of PTJ—duplex, other additions, as indicated, and appropriate amounts of polB in 30 mM Tris-HCl buffer pH 8.0 (25° C.). The background reaction mixtures contained all components except DNA polymerases. Primer extensions were carried out for a preset time at 75° C. in PTC-150 Minicycler (MJ Research, Inc.; Waltham, Mass.). 5 μl samples were removed and chilled to 4° C. followed by immediate addition of 20 μl of 20 mM EDTA. The samples were desalted by centrifugation through Sephadex G-50 spun columns, diluted, and analyzed on a ABI Prism 377 DNA sequencer (Applied BioSystems; Foster City, Calif.). For each sample, raw data were extracted from the sequencer trace files with the program Chromas 1.5 (Technelysium Pty Ltd., Australia), and the fluorescent signals were analyzed by our nonlinear regression data analysis programs written in Fortran. The programs applied Powell algorithms to approximate the signals by a number of Gaussian peaks and calculate integral fluorescent intensities for each product peak. The total amount of fluorescent products for each time of incubation was determined, and the initial rates of extension were calculated.
The next two tables (Table 4 and 5) display effects of various media components on M.K. polB DNA polymerase activity. Initial rates of primer extension reaction were measured as described by Pavlov et al., 2002.

For series [3], the system named is PolB. The series can be described thus: Interaction of polB with PCNA (primer extension assay). Type of series: biochemical, Methanopyrus kandleri. The conditions noted are these: PCNA 5.6 μM subunits, 100 mM NaCl. Here is the method: PolB was incubated with PCNA (final concentration 5.6 μM subunits) in the presence of 100 mM NaCl. The polymerase activity was measured in the primer extension assay and compared to the activity without PCNA added. Even without clamp loader, the interaction of PCNA with PolB was detected as the initial rate of the primer extension increased 1.75 times. […] This happens, most likely because PCNA anchors polB on the PTJ and/or prevents partial melting of the PTJ duplex.

M.K. polB DNA polymerase, sequence (Q8TWJ5 entry or part of it): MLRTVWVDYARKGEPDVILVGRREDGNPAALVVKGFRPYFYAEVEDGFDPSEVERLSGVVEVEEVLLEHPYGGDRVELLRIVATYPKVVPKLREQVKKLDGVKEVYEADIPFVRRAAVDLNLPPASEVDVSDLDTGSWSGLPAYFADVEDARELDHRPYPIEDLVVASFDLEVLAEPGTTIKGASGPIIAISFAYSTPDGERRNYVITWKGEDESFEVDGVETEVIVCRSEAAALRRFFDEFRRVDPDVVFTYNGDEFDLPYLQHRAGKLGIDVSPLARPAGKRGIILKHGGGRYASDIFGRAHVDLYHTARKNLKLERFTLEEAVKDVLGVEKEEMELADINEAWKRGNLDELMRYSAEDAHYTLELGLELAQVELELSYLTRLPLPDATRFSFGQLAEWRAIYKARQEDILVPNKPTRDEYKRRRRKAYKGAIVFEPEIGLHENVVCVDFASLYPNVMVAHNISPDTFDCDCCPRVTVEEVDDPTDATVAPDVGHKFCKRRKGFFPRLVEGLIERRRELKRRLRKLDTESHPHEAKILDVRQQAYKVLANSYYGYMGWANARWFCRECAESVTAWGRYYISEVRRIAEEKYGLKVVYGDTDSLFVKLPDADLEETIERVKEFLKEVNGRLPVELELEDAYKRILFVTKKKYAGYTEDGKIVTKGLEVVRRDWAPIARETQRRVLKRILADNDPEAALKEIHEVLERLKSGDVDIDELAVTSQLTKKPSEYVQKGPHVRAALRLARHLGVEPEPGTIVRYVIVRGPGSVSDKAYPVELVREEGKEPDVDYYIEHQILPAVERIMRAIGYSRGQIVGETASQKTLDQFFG

B1: M. kandleri AV19 PCNA (MK1030), DNA polymerase sliding clamp (other)
chain: LVEFRAYQEEARYFKYAFNAAGKVVEEAPLIVTENGIVSRAMDASHIAMAVLEMPWEMFDEYEPPSDELMYGLDMEEVTRIVRRARVTDEITLEGEDEEEVIIKLGSSGYEREFRLRSIDIDDIPDEPELDFAVEVTVVPDFIQDAVRDADLVSDTVKVGAKGNTFYFKAEGERGRVIPKVQEGAEALLTFEVEEDVETAYPLDYLKDMIQAAQGAESVRIRLGQDMPLELTFRIGPAGEGKLTFYLAPRVEE
For B1, the “initial rate of the primer extension” value in series [1] was determined as 1.75 fold. Also, in series [2], the “effect on polymerase activity of PolB” value is reported as “increase”. Moreover, the “effect on hydrolysis of the primer annealed to the duplex” value in series [3] was “suppression of hydrolysis of the primer”.

The values above are taken from US20060068386A1, “Complete genome and protein sequence of the hyperthermophile methanopyrus kandleri av19 and monophyly of archael methanogens and methods of use thereof” (priority 2002, published 2006).
